Molecular target: S Stabilizing Construct #21, CoV2_S2_1_pross mutant Spike (S) protein (SARS-CoV-2) (UniProt P0DTC2)

## CR3022 antibody (RBD Specific Antibody)
  fold affinity decrease: 17 fold

Reference: patent publication US20230234992A1
